The DeepSol protein solubility set

Test: soluble on expression in E. coli; label from the status in PepcDB or PDB records

## MFTGSIVALVTPMDEKGNVSRSCLKKLIDYHVANGTSAIVSVGTTGESATLSHDEHGDVVMMTLELADGRIPVIAGTGANATAEAISLTQRFNDSGIVGCLTVTPYYNRPTQEGLFQHFKAIAEHTDLPQILYNVPSRTGCDMLPETVGRLAEIKNIIAIKEATGNLTRVHQIKELVSDDFILLSGDDASALDFMQLGGHGVISVTANVAAREMADMCKLAAEGQFAEARAINQRLMPLHNKLFVEPNPIPVKWACKALGLVATDTLRLPMTPITDHGRDIVKAALQHAGLL
  soluble on expression in E. coli: not soluble

## MIHYKIAPSPLDHEWHILLKFTQDNDFPIEISLPNWVPGSYLIRDFSRHITSIHASCNGTSMPLEQIAKNRWHTAAVRGEWQIRYTVYAFDLSVRGSFLTTERGFFDGSCLFLKVEGTETLPHRLELTGIPPEWRIATTLPETGRLVFQTASYDELIDRPVEMGLIEFLDFEAAGIPHTIALNGIYPDFDRDRLVSDIKKICETELAMFSSPAPFEKYLFLLHVGDHIYGGLEHTDSTALLADRHSLPPYGMTDADDAYTTLLGLFSHEYFHAWNVKSIKPAAFAPYDLDKENYTEQLWAFEGITSYYDDLFLARSRTISPEFYLNLLAQGITRVQQTRGRLRQTLAESSFTAWNKFYKPDENSPNAIVSYYQKGALAALCLDLIIRNRSNGRHSLDTVMDKLYREWRDTHSGIPEKHWQIRCQEITGLDLTDFFQTALYSTEDLPLAECLATTGVKLTFLPLPRQHGGGYAEHIFPIPPTGDFGARFKQNADHIVLTHVFNGGSAESAALCPQDKIIALDGYACTDFAAQWARYHVRAKINIHFFRAGILRQTVLTVQATAADTAILHITDRNLLENWLFGLEHHHHHH
  soluble on expression in E. coli: not soluble

## MGSDKIHHHHHHMPVSQPVSSQPPTANCYDLAVIGGGINGVGIAADAAGRGLKVFLCEKDDLAQHTSSASSKLIHGGLRYLEHYEFRLVREALAEREVLLAKAPHIVKPMRFVLPHRPHLRPAWMIRAGLFLYDHLGKRKRLGASRSLRFGPGYPLKPAITRGFEYADCAVDDARLVVLNAMAARELGAHIRTRTRCLRAERVEGLWQVELQHADGSLQTIHARALVNAAGPWVASFIKDDLKLDAPYGIRLIQGSHIIVPRLYEGEHAYILQNEDQRIVFCIPYLDRFTLIGTTDREYSGDPAAVAITEQETHYLLKVVNEHFNHQLSQADILHTYSGVRPLCNDESDNPSAVTRDYTLALSAEVGQAPLLSVFGGKLTTYRKLAESAMAELKPFFTQMRAPWTASAPLPGAEGMTTVQALIDAVLARCGWLPVDLAKRWVLTYGSRVWRLLDGVHGPEDLGQAIGAGLFTREVDYLLEEEWAEQTADIIWRRTKLGLSLTAQEQMALEAYLQQARKVRANSRAA
  soluble on expression in E. coli: not soluble

## GEETRTEVEKKNYMNNAEEAKDVLLGVYRTNTLDAMYGYYLSILFNLGTDISQVEGSGNENFRIIPTNSFPTTQSEVQQTWAALYTGIYRANDFLERISNKIGSYTTTDKKLATLYIAEARALRGMFYFELVRRFGNVVLMTSTQMSNQNPATYVQSAPEKVYEYIEDDLLYACDILPYATDDQYRESNDYRFSKGAALGLLTKVYATWAGYPVKDESKWEAAAKTARILVESGKHGLLKDYEQLWKNTCNGTWDPTESLIEISFYSPTVSGNSDPVGRIGKWNGVKTTAIAGVRGSCAANVKVVHTFVLDWREDVSDIRRDLSIANYQYTDTKKSLWVAGASDTDESAAEKDADPTKAQKNKQNYTPAKWDIQKYVTTNSFINNDKSNVNWYFLRYADVLLLYAEALNEWKHGPDAEAYNAINAVRRRGYGNPSNTSACDLPQGLDETSFREAVRKERSYELSFEGHRRQDLIRWGIYYKTVQATAKELGYWWEGTGSPNYSVATYTEEGKHELFPIPQRDMDLCIQFNQNPKW
  soluble on expression in E. coli: soluble

## MDWRHEAVCRDEDPELFFPVGNSGPALAQVAAAKVVCNRCPVTSQCLAWALETGQDAGVWGGMSEDERRALKRRKNRGRGRARATA
  soluble on expression in E. coli: not soluble

## MSPKSVVVTGSNRGLGFGLVQQFLKDPNVQHVIATARDVDKATALKGICDPRLHILQLSLGSDESIANFAEKVSEIVGESGLTLLINNAAVMLPYVTKQKPDRKVVLDLFESNTIGPMMLTQSLVPLIIKASKRQEGDTLSVSRGAIINIASEFLGSISENTSGSGEYKAMAYRMTKCAVNQFTKTLSIDLKDDHILTAGICPGMVQTDMSKGKGQLTIEESSSQILAAFNKLGATHNGGYFRRDLSIIPY
  soluble on expression in E. coli: not soluble

## MGSDKIHHHHHHMSEETTGQLPDVLWHYTTFDTLTAILTSQCLLASDFRDTNDREEILFGFKALRDAFGTHNTWNTTEGFADPVSAAIRENEERIIEDLESSFLHGQMICLSSARDSLSMWRGYGQLTNGGGNGAVAIGFCAADLQTFCGPSDATLQSSTAHIQQNASGGFEGPSNVDYAFRNFPQLSNALSNEDYSADFHLKWTHYLAHWMKHRKHPAFAEEREYRIWGHAYDGNDKGNSQHVVFVGNHDRRKFHLAPAPDDILGPLTHPLAIQKIMVGPKTDFAKVERFTRNVFQSYTHDRPDMCASKIPFK
  soluble on expression in E. coli: not soluble

## MPGQKQKGKKNVRRTKTRFELIEPSKGQLIAEVEDTHGGYPPRFSCKTVDGDIIIAPIQGSIMKGPKRVLVKKDNLVLLVPIDFTTGKEGTTSYYIHHVYTSEDRHQLEKKGFLEKKDKISDATKSTKVVFGVESSDKSLEKAKDEELDIDTI
  soluble on expression in E. coli: not soluble

## MGSDKIHHHHHHVILKAKVYHKVFAFKDLKEVLAKANEEKSGDVLAGIGATSASERVAAKLVLSNLTLEDLYNHPVLPYEEDEVTRVIYDGLNLRIYQEMKGWTVGQLREYILDHGTTGSHLNHISRGLTSEMIAAVAKLMSNMDLVYGSKKMRHQAHCNTTIGIPGTLAFRCQPNHPTDSVEGVMASLKEGLSYGSGDAVIGINPVEDNVDTLSRLLETVKEFMQQWEIPTQNCVLAHITTQMKAITKGVPIDLVFQSIAGTQKANEAFGISKELIDEAFALIQRNGTATGPNLMYFETGQGSEISLAAHHGVDMMTLESRTYGFGRHYRPFLLNNVSGFIGPETIYSGREVIRADLEDLFMGKLHGLPMGIAPCYTNHMKADQNDQEIATLLCAMAGANYFMGLPGGDDVMLSYQDTSYHDDAATREILGLRPLPEFEKWLEKMGIMENGQLTERAGDPSVFDK
  soluble on expression in E. coli: not soluble

## MEANILSTHKSKILVFKGWSERQKSVVFIPIEAVLEGHNIEVQFFEKPNEPVTFQVKDKNGNIVFQDMTTPDNLEIYQIDVSGFKTGQYELLYIEKDVTLIGEFEIE
  soluble on expression in E. coli: not soluble

## MSLSIFSHFQERFEATRQEEYSLQEYLDLCKQDKTAYASAAERLLMAIGEPELLDTSVDSRLSRIFSNKVIRRYPAFADFHGMEECIDQIVAFFRHAAQGLEEKKQILYLLGPVGGGKSSLAEKLKQLMEKVPFYAIKGSPVFESPLGLFNPDEDGAILEEDYGIPRRYLRSIMSPWATKRLNEFGGDISQFRVVKLYPSILNQIAIAKTEPGDENNQDISALVGKVDIRKLEEYPQNDADAYSYSGALCRANQGLMEFVEMFKAPIKVLHPLLTATQEGNYNSTEGLGALPYSGIILAHSNESEWHSFRNNKNNEAFIDRIYIVKVPYCLRVADEIKIYDKLLVNSSLAHAHCAPDTLKMLSQFSVLSRLKEPENSNIYSKMRVYDGENLKDTDPKAKSIQEYRDSAGVDEGMAGLSTRFAFKILSKVFNFDPHEVAANPVHLLYVLEQQIEQEQFQPETRERYLRFIKEYLAPRYVEFIGKEIQTAYLESYSEYGQNIFDRYVLYADFWIQDQEYRDPETGEILNRAALNEELEKIEKPAGISNEGHHHHHH
  soluble on expression in E. coli: not soluble

## MSLLFIFVVQSFAALSVEELTWDNGDTLLKFLQRNSIPMSLYYGLDREDQELASDIAYKIKYQVLKDENNNIEQVLIPISDDLQIHIYKDKDGQYTLAFTPVSYQKEDRILHLTIKSSAYQDVYEESGSSTLARAMVRAFRGSINFRNIQKGDEVTLYYEQKRRMGKLWGDINIKMAMVEINKSAREVFSYNDIFYDRDGKELESFLLTKPVNYTRISSPFTTARYHPILKRYRAHLGIDYAAPTGTPVKSAGKGVVTFIGTKGGYGNVIQIKHDSGYMTLYAHLSRFAKIKNGQKVNQGQVIAYVGSTGMSTGPHLHFGVYLNNKAINPASVVKIAKSELSGKAKENFKHIIAGYEQVVKEALASNQPNPPKEEDFENYIEGHHHHHH
  soluble on expression in E. coli: soluble

## MHHHHHHSSGVDLGTENLYFQSMKYILVTGGVISGIGKGIIASSVGTILKSCGLHVTSIKIDPYINIDAGTFSPYEHGEVFVLDDGGEVDLDLGNYERFLDIRLTKDNNLTTGKIYQYVINKERKGDYLGKTVQVVPHITDAIQEWVMRQALIPVDEDGLEPQVCVIELGGTVGDIESMPFIEAFRQFQFKVKRENFCNIHVSLVPQPSSTGEQKTKPTQNSVRELRGLGLSPDLVVCRCSNPLDTSVKEKISMFCHVEPEQVICVHDVSSIYRVPLLLEEQGVVDYFLRRLDLP
  soluble on expression in E. coli: soluble

## MEIQFLGTGAGQPAKARNVSSLVLKLLDEINEVWMFDCGEGTQRQILETTIKPRKVKKIFITHMHGDHVFGLPGFLSSRAFQANEEQTDLDIYGPVGIKSFVMTALRTSGSRLPYRIHFHEFDESSLGKIMETDKFTVYAEKLDHTIFCMGYRVVQKDLEGTLDAEALKLAGVPFGPLFGKVKNGENVTLEDGREIIAKDYISEPKKGKVITILGDTRKTDASIRLALGADVLVHESTYGKGDERIAKSHGHSTNMQAADIAKQANAKRLLLNHVSARFMGRDCWQMEEDAKTIFSNTHLVRDLEEVGILEHHHHHH
  soluble on expression in E. coli: soluble

## MGSDKIHHHHHHMLFNQLQNETNLTNSEKEIARYLLNQNLDLATLSAQKLGELTFTSKPTVLRFIKKLGYKKFNEFCYDLISEQERIKKSRDLLKHININKDSNLSDLLIKVPNLYNQAINRTNSLMDQENLNLIVKKLNTLDYIDFYGSGITEGLAQIGSFKFSSIGKFGGVYSNVNEHYLTSIHGINKHGAIIISFTGGNKAMINAAKDLKKLNIYSLGIGGLENEELKNNCSSYLTIPFENLSLGMESIVPSVAINYVIDILFTSLTIKNLSQNVTNALKVKNLRK
  soluble on expression in E. coli: not soluble

## MGHHHHHHSHMFVYLNPNPKNTLRIDAEALTETRRLAARAWDLKYQMTKQGMHQRMLRAELDNLEILERGHSAALTTNLSLLANVLLDQPAPPDPTQGEEKGLPPSSRVESRTEGVYTVTVYPGDPAFEIQDSLPQKIWPMLYLHQQRWLPSYGPWHIRFTSSAMQLRNFPRSLRGQANFQNSMSLKLITALTDVISRISLDFYSDLRHLSDTMSALCLIAAYYSEKNQTPLPTNLPELLGNITAKVTLLVRDLKRAAANKGFNFNRNSSSLLPAQGGLYSNDFFQEHALYSLFRTAGMLASSSSPEYPRADSVLAITAAVFGDNIPPFAAYQWNLRSGLKALESLILLFLLLDVNVPATSNKRLHLEALLGESYSKGSRPPARRTGPLDAGGSVFSFLMENYLVPTLLHRPTTNMSALFPGLYLLQLEFSSGASTPHAIHLTDVKFRDIFNILVQSNVFQDSQELIRAKQSLRVSCETGSGNLLESLSPGTTMRDIIRKEFMAQDVYDYVYFCVLGALPVTVAVV
  soluble on expression in E. coli: not soluble

## METLLTQILDRLDQLHSSVGALTSDVNEMKNQLNKIEARAGSIEERVNSIEARVDSIESRVNNIEANMATKDELAELRSKVDDIEAKMATKDELAELRSTVNGLQSNVNEIQAKMATKEELAELRSKVNELQFKVNELQSNVNEIQAKMATKDDLVPIRQAVMEIDQIVKRIEVNQERHEHILAILSKRSIEHEASIASLRQAQ
  soluble on expression in E. coli: not soluble

## TARKCLLEKVEVITGEEAESNVLQMQCKLFVFDKTSQSWVERGRGLLRLNDMASTDDGTLQSRLVMRTQGSLRLILNTKLWAQMQIDKASEKSIHITAMDTEDQGVKVFLISASSKDTGQLYAALHHRILALRSRVE
  soluble on expression in E. coli: soluble
